From the supplement of paper PMC12042874
± gives the uncertainty stated by the source.

Experiment: amyloid nucleation score (Sup35N fusion, yeast selection) (log enrichment); library NNK2; higher = more nucleation; inactive = no reads after selection
Procedure, shortened: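 Psi-negative yeast expressed Sup35N fused to peptides of 20 random codons. They were induced 24 hours with 100 μM copper sulfate, grown 7 days at 30°C without adenine and uracil, and their plasmid inserts from input and output were Illumina-sequenced. The nucleation score is the DiMSum log enrichment of output over input reads, centred on the mode score of non-aggregating sequences. Sequences with under 100 input reads were excluded.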

Substance | amyloid nucleation score
NVLGSRLKLMNEGIDLALIK | 6.38 ± 0.069
NVLSRYYQPYMAPPENKAWD | -0.277 ± 1
NVLSWKHMRAKGVNWFGGWV | -0.066 ± 0.27
NVLWVDSSLFRNLRPTSERE | 0.276 ± 1
NVMSDYTFANTSITSCCY | -1.26 ± 0.64
NVQRI | -0.399 ± 0.55
NVRTYCGFKSSNIRRWVSRH | inactive
NVTGYFSSYKVVGRMESSYV | 1.73 ± 0.19
NVVFRFVVEYNLWWLSVPDY | -0.578 ± 1.1
NVVTGVASILWGQDHNKSLV | 0.641 ± 0.74
NVWNLQLYPTATCAKYNGAV | 4.13 ± 0.045
NVYIKRIWVPFSP | -0.173 ± 0.36
NWGNDSMRRPCCG | 2 ± 0.088
NWGWSAILKPLRFAVFRPWN | 0.336 ± 0.6
NWIPSI | -0.817 ± 0.41
NWSFASKVGLQMSKHAVTV | 0.13 ± 0.42
NWVNQTS | -1.6 ± 0.48
NYDGCRWWW | inactive
NYKRFCSCMLDH | -0.665 ± 0.63
NYMRVNWLLFSSSQPVICVG | 0.107 ± 0.79
NYRYLLFTSAVDRLQA | -0.117 ± 0.21
NYSDFVVMTRSVLFWYCDQR | -0.424 ± 0.26

Substance | amyloid nucleation score
NYSDWRVSTEIRSMGRYRPH | 0.069 ± 0.65
NYSGLDERPVWVFWYLVFEY | -1.09 ± 1.1
NYSGYLLNASVRRTMRRRVF | -1.18 ± 0.47
NYSVWVIPVFMDEHIVLFMY | 5.8 ± 0.071
NYSYMENYICQLACKTGEAG | 5.88 ± 0.084
NYSYMSMHTSCLSKTPSSRA | -1.42 ± 1.1
NYTNVRERGYMRVEYDMSIT | 0.202 ± 0.56
PAIISFQYLFGRRSELEKM | 5.572 ± 0.047
PALTIEIMSYGASQHGFSLV | 0.367 ± 0.28
PATDPWCS | -0.14 ± 0.25
PAVFRHHPGKHVRHGSSTTT | 0.73 ± 0.28
PCCQEACDGCEGNRDLPGEA | 1.65 ± 0.32
PCLMEGFTS | -0.849 ± 0.64
PDFFCRSVVNQKMYLKTLHY | -1.03 ± 1.1
PDVPIFCPYAAAMKVAVCYR | -0.526 ± 0.76
PEGPERFVFATWPRMHMPSY | inactive
PELSNDQGYFVDSVKSGKVE | -0.036 ± 0.48
PEPFS | inactive
PFACYGFCRM | -1.29 ± 0.76
PFGKGKEHIKL | inactive
PFLSLAVFVTQAVVEHCCRC | 7.48 ± 0.085
PFSCITRLQ | 2.48 ± 0.1

Substance | amyloid nucleation score
PFSIVIVANFYIITYEACFL | 2.85 ± 0.14
PFSLVTSITFFWSIMCIYAM | 0.57 ± 0.81
PGDMLSGAFHMCISNCVTSC | 0.319 ± 0.38
PGHWLTNINISFSACKCLMM | 8.227 ± 0.045
PGLPEERHNCKTYCHRTSRP | 0.016 ± 0.34
PGVMHICLCRTHTSRCKCTL | 0.402 ± 0.57
PGVRISVPVLLAWNCYC | 8.558 ± 0.071
PHLTMFKARYIDTFAPRS | -0.672 ± 0.5
PIFSSKLSGRGR | -0.059 ± 0.55
PIGHLFQET | 0.92 ± 0.24
PILLMSTVTRRLVRCNVAFK | 0.391 ± 0.51
PIRVSSSVVSWYYFGNSRIW | -1.09 ± 0.62
PITLTRASALLCKYYAFWTF | 1.14 ± 0.37
PIWWLL | -0.822 ± 0.79
PKRLKSSYLD | -0.208 ± 0.37
PKVLGFFK | inactive
PKYTDCCFFNLILIGWSVFP | 5.272 ± 0.052
PLCLSDNYMTIQSSSILNAH | -0.205 ± 0.41
PLLFIMANFCLVVLHVSFYN | -0.639 ± 1
PLPGFRIMFLWRQNALPVQP | 0.196 ± 0.64
PMCYSVSSNLWVTTLQWGYL | 2.56 ± 0.14
PMVFNHG | -0.398 ± 1

Substance | amyloid nucleation score
PNACPFWCLGRV | -0.439 ± 0.63
PNIIGKLGNLNSLVLC | 0.382 ± 0.8
PNSPRMNESLSFIFPGDVSG | -0.474 ± 1
PNSYAETDWISLCSDSMSWH | 0.721 ± 0.74
PNTSKGGDGYSTWGTSQASS | 0.03 ± 0.46
PPHCTGHLV | 0.183 ± 1
PPIRVYNLSSTYPMDMSSQR | -0.8 ± 0.27
PQSWCFFPNFDKGLVLVRRQ | 0.801 ± 0.82
PQTLCINISFDYRYMNQVLD | 7.449 ± 0.074
PRCNGHY | inactive
PRCRVAR | 0.305 ± 1
PRCYLVLKFYSQCLFSVHTF | inactive
PRFIQGYILRNLCARMLKYS | -0.368 ± 0.39
PRQHYSNRGFCFSFILGVGM | -0.327 ± 0.34
PRSVFCCLDGRHTPRKMPIY | -0.47 ± 0.74
PRVNILWYNRMLYAWFRPVV | -1.21 ± 0.55
PSDSLVYVYDL | -0.41 ± 0.38
PSIRWNVIIAMSYLQS | 1.89 ± 0.16
PSMQVVKRVINFG | inactive
PSQAGKIMVLKNTRWNHRDC | 1.01 ± 0.52
